Series [1] has as its target T1, TRBP-WT (human, UniProt Q15633 1-366).
T1 sequence: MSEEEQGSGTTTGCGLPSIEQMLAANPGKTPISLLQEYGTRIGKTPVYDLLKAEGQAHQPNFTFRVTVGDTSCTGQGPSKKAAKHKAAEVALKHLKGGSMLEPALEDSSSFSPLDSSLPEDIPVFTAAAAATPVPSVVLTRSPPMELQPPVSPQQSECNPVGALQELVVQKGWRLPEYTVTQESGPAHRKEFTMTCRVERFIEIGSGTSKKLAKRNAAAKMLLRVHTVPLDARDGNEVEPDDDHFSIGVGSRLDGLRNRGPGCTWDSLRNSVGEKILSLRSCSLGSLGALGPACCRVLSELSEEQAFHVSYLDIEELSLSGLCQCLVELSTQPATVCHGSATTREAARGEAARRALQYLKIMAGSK
The experiment in a line: EMSA; EMSA: 20 mM Tris pH 7.5, 150 mM NaCl, 2 mM EDTA, 1 mM 2-mercaptoethanol, 1 mM DTT, 50 ng/ul salmon sperm DNA, 0.4 U/ul RNasin, 0.5 nM 32P-siRNA, 30 min on ice. The following applies: protein: recombinant, tags: N-His6;C-myc, label: 32P. (In general: A gel shift assay detects complexes by their altered migration in electrophoresis.)

The target of series [2] is T1, TRBP-WT. The experiment in a line: EMSA; complex 1 (monomer); EMSA: 20 mM Tris pH 7.5, 150 mM NaCl, 2 mM EDTA, 1 mM 2-mercaptoethanol, 1 mM DTT, 50 ng/ul salmon sperm DNA, 0.4 U/ul RNasin, 0.5 nM 32P-siRNA, 30 min on ice. The conditions noted are these: protein: recombinant, tags: N-His6;C-myc, label: 32P guide strand.
The target in series [3] is T2, PACT-WT (N-terminal His- and C-terminal myc-tagged protein activator of PKR) (human), O75569.
T2 chain: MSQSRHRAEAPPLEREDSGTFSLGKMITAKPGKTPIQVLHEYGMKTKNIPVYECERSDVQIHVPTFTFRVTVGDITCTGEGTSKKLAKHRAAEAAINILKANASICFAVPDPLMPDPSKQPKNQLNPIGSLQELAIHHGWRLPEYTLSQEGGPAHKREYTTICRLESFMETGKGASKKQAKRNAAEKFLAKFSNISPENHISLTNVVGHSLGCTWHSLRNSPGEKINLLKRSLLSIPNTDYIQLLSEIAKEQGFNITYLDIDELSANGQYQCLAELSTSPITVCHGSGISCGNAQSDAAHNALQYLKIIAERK
The experiment in a line: SEC; Superdex 200 HR 10/30; purified protein (TRBP proteins 1,300 nM, 330-1,300 nM in Figure S3; PACT concentration not stated) pre-incubated with siLuc-36 siRNA (300 nM) 30 min on ice; 20 mM Tris pH 7.5, 150 mM NaCl, 2 mM EDTA, 1 mM 2-mercaptoethanol, 1 mM DTT; fractions blotted with anti-myc. The following applies: remark: other sources report otherwise. For orientation: In gel filtration, larger molecules generally elute earlier.

Series [4] deals with the molecule itself. Described as above.
The next series concerns the target T3, TRBP-ΔdsRBD3 (human, UniProt Q15633 1-292).
T3 sequence: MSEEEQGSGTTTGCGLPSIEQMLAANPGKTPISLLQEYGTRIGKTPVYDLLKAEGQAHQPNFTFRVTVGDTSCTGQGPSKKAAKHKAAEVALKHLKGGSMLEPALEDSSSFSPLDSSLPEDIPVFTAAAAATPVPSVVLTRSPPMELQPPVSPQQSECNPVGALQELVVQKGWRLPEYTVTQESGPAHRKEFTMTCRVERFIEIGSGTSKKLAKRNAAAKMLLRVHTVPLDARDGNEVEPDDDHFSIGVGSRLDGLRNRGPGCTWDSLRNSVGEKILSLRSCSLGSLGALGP
The experiment in a line: EMSA; complex 1; EMSA: 20 mM Tris pH 7.5, 150 mM NaCl, 2 mM EDTA, 1 mM 2-mercaptoethanol, 1 mM DTT, 50 ng/ul salmon sperm DNA, 0.4 U/ul RNasin, 0.5 nM 32P-siRNA, 30 min on ice. The following applies: protein: recombinant; tags: N-His6;C-myc; label: 32P guide strand; 2 nt 3' overhangs.

Series [5] concerns the molecule itself. The experiment in a line: native gel or EMSA; purified protein 0-1,300 nM with 0.5 nM 32P-labeled siRNA, 30 min on ice; 20 mM Tris pH 7.5, 150 mM NaCl, 2 mM EDTA, 1 mM 2-mercaptoethanol, 1 mM DTT, salmon sperm DNA, RNasin; 9% polyacrylamide gel; Kd from siRNA-binding curves; complex 2 = second protein molecule joining the protein-siRNA complex 1.

Numbering of substitutions follows the chain as printed.

In general, Kd refers to the equilibrium constant for the complex coming apart. Broadly, the stoichiometry N is a count of units in the complex or per binding partner.

B1: dsDNA_Luc2-153 (dsDNA)
DNA 1: TCGAAGTATTCCGCGTACGTG
DNA 2: CGTACGCGGAATACTTCGATT
On to B1, for which the binding result with TRBP-WT [1] is recorded as “no binding”.

B2: siLuc-1430 (dsRNA)
RNA 1: CGGCGGCGGGAAGUUCACCGG
RNA 2: GGUGAACUUCCCGCCGCCGUU
Turning to B2, the Kd with TRBP-WT [2] (2 nt 3' overhangs) came out at 5.7 nM.

B3: siLuc-36B (dsRNA)
RNA 1: UCUUCCAGCGGAUAGAAUGGC
RNA 2: GCCAUUCUAUCCGCUGGAAGA
B3: the Kd in the series with TRBP-WT [2] (blunt) turned out to be 4.5 nM.

B4: siLuc2-153B (dsRNA)
RNA 1: UCGAAGUAUUCCGCGUACGUG
RNA 2: CACGUACGCGGAAUACUUCGA
For the molecule B4, the Kd with TRBP-WT [2] (blunt) amounted to 5.1 nM.

B5: PACT-WT (N-terminal His- and C-terminal myc-tagged protein activator of PKR), O75569 1-313 (natural protein)
chain: T2 chain
Turning to B5, the stoichiometry N in series [3] amounted to 2.

B6: PACT-dsRBDmt1 (natural protein, human, UniProt O75569 1-313, looked up)
chain: T2 chain with K84A, K85A
notes: human PACT with lysines 84 and 85 in dsRBD1 replaced with alanines; source: E. coli Rosetta (DE3) pLysS, purified (Ni-NTA agarose); not shown: His6, N-terminal, kept; myc, C-terminal, kept
Regarding B6, in series [4], the “stoichiometry N” value came to 2.

B7: PACT-dsRBDmt2 (natural protein, human, UniProt O75569 1-313, looked up)
chain: T2 chain with K177A, K178A
notes: human PACT with lysines 177 and 178 in dsRBD2 replaced with alanines; source: E. coli Rosetta (DE3) pLysS, purified (Ni-NTA agarose); not shown: His6, N-terminal, kept; myc, C-terminal, kept
For the molecule B7, the “stoichiometry N” value in series [4] was determined as 2.

B8: siLuc-36 (dsRNA)
RNA 1: UCUUCCAGCGGAUAGAAUGGC
RNA 2: CAUUCUAUCCGCUGGAAGAUG
With B8, the Kd with TRBP-ΔdsRBD3 stood at 5 nM; in the series with TRBP-WT [2] (2 nt 3' overhangs), 5.3 nM.

B9: siLuc-30 (dsRNA)
RNA 1: UCUUCAUAGAAUGGCGCCGGG
RNA 2: CGGCGCCAUUCUAUGAAGAUG
As to B9, the Kd with TRBP-WT [2] (2 nt 3' overhangs) is 6.2 nM. In the case of UCGAAGUAUUCCGCGUACGUG (ssRNA) [ssRNA_Luc2-153], the binding result in the series with TRBP-WT [1] (single strand) was “no binding”. On the same count and under the same terms, the value for UCUUCCAGCGGAUAGAAUGGC (ssRNA) [ssRNA_Luc-36] was “no binding”.

B10: siLuc-48 (dsRNA)
RNA 1: CCAGCGGUUCCAUCUUCCAGC
RNA 2: UGGAAGAUGGAACCGCUGGAG
Take B10: the Kd with TRBP-WT [2] (2 nt 3' overhangs) stood at 33 nM.

B11: siLuc-18 (dsRNA)
RNA 1: GGCGCCGGGCCUUUCUUUAUG
RNA 2: UAAAGAAAGGCCCGGCGCCAU
As to B11, in the series with TRBP-WT [2] (2 nt 3' overhangs), the Kd was determined as 5.8 nM.

B12: dsDNA_Luc-36 (dsDNA)
DNA 1: TCTTCCAGCGGATAGAATGGC
DNA 2: CATTCTATCCGCTGGAAGATG
For B12, the binding result with TRBP-WT [1] is reported as “no binding”.

B13: TRBP-dsRBDmt1 (natural protein, human, UniProt Q15633 1-366, looked up)
chain: T1 sequence with K80A, K81A
notes: full length human TRBP with lysines 80 and 81 in dsRBD1 replaced with alanines; source: E. coli Rosetta (DE3) pLysS, purified (Ni-NTA agarose); not shown: His6, N-terminal, kept; myc, C-terminal, kept
B13: the binding result in series [5] is on record as “binds”.

B14: TRBP-dsRBDmt2 (natural protein, human, UniProt Q15633 1-366, looked up)
chain: T1 sequence with K210A, K211A
notes: full length human TRBP with lysines 210 and 211 in dsRBD2 replaced with alanines; source: E. coli Rosetta (DE3) pLysS, purified (Ni-NTA agarose); not shown: His6, N-terminal, kept; myc, C-terminal, kept
Consider B14, for which the binding result in series [5] is “binds”.

For the origin of these results see publication PMC3642127, “Distinguishable In Vitro Binding Mode of Monomeric TRBP and Dimeric PACT with siRNA” (PLoS ONE, 2013).
